From US20210009704A1 (TUSK THERAPEUTICS, published 2021)

Columns and labels:
[1] = molecular target: T1, human CD25 expressed on cells (human, UniProt P01589 22-272); experiment: flow cytometry on CD3/CD28 bead activated human Pan T cells, gated on CD4+ T cells
T1 sequence: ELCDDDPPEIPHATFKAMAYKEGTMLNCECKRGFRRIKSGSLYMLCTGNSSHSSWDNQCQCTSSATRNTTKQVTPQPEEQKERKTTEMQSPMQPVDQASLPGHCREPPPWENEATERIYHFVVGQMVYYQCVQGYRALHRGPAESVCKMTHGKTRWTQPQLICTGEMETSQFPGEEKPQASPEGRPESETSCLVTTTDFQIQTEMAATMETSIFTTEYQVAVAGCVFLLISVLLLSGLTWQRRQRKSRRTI
Method: (§1) Binding to CD25 expressing activated human and Cynomolgus monkey PMBC was examined by staining test articles (anti-CD25 primary antibodies) with 20 μg/ml antibodies followed by semi-log dilution series (7-point) for 30 minutes on ice. This was followed by staining with a secondary antibody (rabbit anti-human Fcg F(ab′)2- (Jackson ImmunoResearch)) concentration of 5 μg/ml for 30 minutes on ice. All samples were stained in triplicates. To minimize cross-linking induced cell death mediated by binding of the secondary antibody, cell lines were examined in staining cohorts of 4 test articles at a time. Live lymphocytes were gated using FSC vs SSC parameters by flow cytometry during sample acquisition. Mean fluorescence intensity (MFI) of gated CD4⁺ and CD8⁺ T cell subsets were plotted on an XY chart, graphing MFI against the log of the concentration, and the data fit to a non-linear regression curve from which the EC50 was calculated.

[2] = molecular target: T1, human CD25 expressed on cells; experiment: flow cytometry on CD3/CD28 bead activated human Pan T cells, gated on CD8+ T cells
Method: as §1

[3] = molecular target: T2, inhouse produced monomeric CD25 antigen (P1AA5872) (human, UniProt P01589 22-240, limits assumed); experiment: SPR Biacore T200, antibody captured by anti-human Fab, monomeric CD25 in solution, 1:1 Langmuir fit; column head 'Binding strength'
T2 construct: also called Inhouse (0% dimer)
T2 sequence: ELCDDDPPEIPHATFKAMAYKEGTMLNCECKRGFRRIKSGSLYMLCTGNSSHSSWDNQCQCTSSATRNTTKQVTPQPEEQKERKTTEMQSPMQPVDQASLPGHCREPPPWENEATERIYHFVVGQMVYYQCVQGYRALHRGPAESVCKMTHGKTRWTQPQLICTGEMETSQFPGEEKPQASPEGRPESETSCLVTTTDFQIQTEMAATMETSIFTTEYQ
Method: (§2) Binding of CD25 antibodies to human CD25 antigen was investigated by surface plasmon resonance using a BIACORE T200 instrument (GE Healthcare).
(§3) The flow cell was set to 25° C. and the sample compartment to 12° C. The CD25 antibody was captured by injecting a 3 μg/ml solution for 60 sec at a flow rate of 10 μl/min. Association of CD25 antigen was measured by injection of human CD25 solutions for 180 sec at a flow rate of 30 μl/min starting with a concentration of 1000 nM down to 1 nM in 1:10 dilution steps. The dissociation phase was triggered by switching from sample solution injection to running buffer and monitored for up to 600 seconds. The surface was regenerated by washing with two consecutive 1-minute injections of 10mM glycine pH 2.1 (provided by the kit) at a flow rate of 10 μl/min. Bulk refractive index differences were corrected by subtracting the response obtained from an anti-human Fab reference surface; blank injections are also subtracted (=double referencing).
(§4) For calculation of KD and kinetic parameters Biacore provided fitting models were used to obtain optimal curve fitting results. The 1:1 Langmuir fit was used for P1AA5872 and the Two State Kinetic fitting for CD25 from Sino Biologicals and R&D Systems.

[4] = molecular target: T1, human CD25 expressed on cells; experiment: flow cytometry on human in vitro differentiated Treg cells, Alexa Fluor 647 anti-human IgG secondary
Method: Binding to CD25 expressing in vitro differentiated Tregs was examined by staining test articles (anti-CD25 primary antibodies) with 30 μg/ml antibodies followed by semi-log dilution series (7-point) for 30 minutes on ice. […] All samples were stained in duplicates. Live cells were gated using FSC vs SSC parameters by flow cytometry during sample acquisition. Mean fluorescence intensity (MFI) of stained cells were plotted on an XY chart, graphing MFI against the log of the concentration, and the data fit to a non-linear regression curve from which the EC50 is calculated.

[5] = molecular target: T3, human CD25 antigen, R&D Systems cat no. 223-2A/CF (human, UniProt P01589 22-213, limits assumed); experiment: SPR Biacore T200, antibody captured by anti-human Fab, CD25 in solution, Two State Reaction fit; column head 'Binding strength'
T3 construct: Bought protein; also called R&D Systems (~10% dimer)
T3 sequence: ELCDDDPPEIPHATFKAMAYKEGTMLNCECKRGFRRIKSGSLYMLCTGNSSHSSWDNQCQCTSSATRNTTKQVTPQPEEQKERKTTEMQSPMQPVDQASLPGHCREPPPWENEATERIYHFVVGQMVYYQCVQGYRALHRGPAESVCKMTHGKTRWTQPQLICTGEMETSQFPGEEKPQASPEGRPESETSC
Method: as §2, §3, §4

[6] = molecular target: T4, recombinant human CD25 extracellular protein sequence (rhCD25) (human, UniProt P01589 22-240); experiment: ForteBio BLI; format not given; lower end of the stated Kd range
T4 construct: also called human CD25 antigen; target antigen
T4 sequence: T2 sequence

[7] = molecular target: T4, recombinant human CD25 extracellular …; experiment: ForteBio BLI; format not given; upper end of the stated Kd range
[8] = molecular target: T5, human CD25 antigen, Sino Biologicals cat no. 10165-H08H (human, UniProt P01589 22-213); experiment: SPR Biacore T200, antibody captured by anti-human Fab, CD25 in solution, Two State Reaction fit; column head 'Binding strength'; Sino Biologicals CD25, ~20% dimer; Two State Reaction fit
T5 construct: Bought protein; also called Sino biological (~20% dimer)
T5 sequence: T3 sequence
Method: as §2, §3, §4

[9] = molecular target: T6, recombinant human CD25 his tagged (human, UniProt P01589 22-240, limits assumed); experiment: ForteBio BLI, avidity format: rhCD25-His on Ni-NTA sensor, IgG in solution, 1:1 fit
T6 construct: Loaded on Ni-NTA sensors at 20.83 nM; also called rhCD25-his; not shown: His tag
T6 sequence: T2 sequence

EC50 (read off the curve) [1]: ~0.9 µg/mL | EC50 (read off the curve) [2]: ~1 µg/mL | Kd [3]: 517 nM | EC50 (read off the curve) [4]: ~2 µg/mL | Kd [5]: 48 nM | Kd [6]: ≥ 0.1 nM | Kd [7]: ≤ 10 nM | Kd [8]: 40 nM | Kd [9]: 2.12 nM
B1: aCD25-a-674 (antibody, V domains shown)
VH: QVQLVQSGAEVKKPGASVKVSCKASGYTFTSYYMHWVRQAPGQGLEWMGIINPSGGSTSYAQKFQGRVTMTRDTSTSTVYMELSSLRSEDTAVYYCARGGAEYIPAEYFQHWGQGTLVTVSS
VL: EIVMTQSPATLSLSPGERATLSCRASQSVSSYLAWYQQKPGQAPRLLIYDASNRATGIPARFSGSGSGTDFTLTISSLEPEDFAVYYCQQRPFLPTFGGGTKVEIK
notes: not shown: human IgG1 heavy chain constant region, P01857; human kappa light chain constant region, P01834
